Assay results as given in the supplement of paper PMC7877785.
± gives the uncertainty stated by the source.

Experiment: self-splicing fitness, log relative to wild type (ln ratio); higher = more splicing; Tetrahymena group I intron in knt gene, E. coli kanamycin selection, DiMSum; sequences stand for … in CUCUCU…GGAGGGAAAAGUUAUCAGGCAUGCACCUGGUAGCUAGUCUUUAAACCAAUAGAUUGCAUCGGUUUAAAAGGCAAGACCGUCAAAUUGCGGGAAAGGGGUCAACAGCCGUUCAGUACCAAGUCUCAGGGGAAACUUUGAGAUGGCCUUGCAAAGGGUAUGGUAAUAAGCUGACGGACAUGGUCCUAACCACGCAGCCAAGUCCUAAGUCAACAGAUCUUCUGUUGAUAUGGAUGCAGUUCACAGACUAAAUGUCGGUCGGGGAAGAUGUAUUCUUCUCAUAAGAUAUAGUCGGACCUCUCCUUAAUGGGAGCUAGCGGAUGAAGUGAUGCAACACUGGAGCCGCUGGGAACUAAUUUGUAUGCGAAAGUAUAUUGAUUAGUUUUGGAGUACUCGUGGUCG
How it was run: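 DiMSum derived fitness as the error-weighted combination of fold changes across replicates, kanamycin versus no kanamycin, normalised to wild type. E. coli BL21(DE3) held the library, which randomised all eight P1ex-region intron nucleotides within the knt kanamycin-resistance gene on pET-22b(+). Six replicate transformations grew overnight at 37°C or 30°C on LB agar with or without 25 μg/mL kanamycin, also containing 100 μg/mL carbenicillin, 50 μM IPTG and 0.2% rhamnose, and pooled colonies were amplicon-sequenced on an Illumina HiSeq 2500.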

| Sequence | self-splicing fitness (ln) (30 °C) | self-splicing fitness (ln) (37 °C) |
| --- | --- | --- |
| CAUCAGCAAUAUUACGGUAA | -2.64 ± 0.14 | -1.09 ± 0.086 |
| CAUCAGCAAUAUUACGGUCA | -1.11 ± 0.076 | -0.81 ± 0.098 |
| CAUCAGCAAUAUUACGGUGA | -1.63 ± 0.12 | -1.4 ± 0.12 |
| CAUCAGCAAUAUUACGGUGG | -0.952 ± 0.045 | -0.393 ± 0.068 |
| CAUCAGCAAUAUUACGGUUG | -2.29 ± 0.072 | -0.804 ± 0.079 |
| CAUCAGCAAUAUUACGUGGU | -3.2 ± 0.096 | -2.07 ± 0.12 |
| CAUCAGCAAUAUUACGUUCA | -2.66 ± 0.16 | -1.77 ± 0.15 |
| CAUGAGCAAUAUUACGACAU | -3.739 ± 0.028 | -2.9 ± 0.043 |
| CAUGAGCAAUAUUACGACUA | -2.06 ± 0.27 | – |
| CAUGAGCAAUAUUACGAGGA | -2.72 ± 0.23 | -2.62 ± 0.26 |
| CAUGAGCAAUAUUACGAGGC | -2.4 ± 0.2 | -2.34 ± 0.26 |
| CAUGAGCAAUAUUACGCAAU | -3.1 ± 0.38 | – |
| CAUGAGCAAUAUUACGCGUA | -2.65 ± 0.24 | -2.45 ± 0.25 |
| CAUGAGCAAUAUUACGCUAC | – | -2.29 ± 0.49 |
| CAUGAGCAAUAUUACGCUCG | -2.72 ± 0.17 | -2.68 ± 0.4 |
| CAUGAGCAAUAUUACGCUGG | -3.36 ± 0.17 | -2.58 ± 0.18 |
| CAUGAGCAAUAUUACGCUUG | -2.74 ± 0.14 | -2.97 ± 0.21 |
| CAUGAGCAAUAUUACGGAAC | -3.01 ± 0.33 | -2.65 ± 0.35 |
| CAUGAGCAAUAUUACGGAAU | -4.62 ± 0.36 | -2.58 ± 0.28 |
| CAUGAGCAAUAUUACGGACA | -3.32 ± 0.48 | -0.812 ± 0.25 |
| CAUGAGCAAUAUUACGGCCA | – | -1.36 ± 0.41 |
| CAUGAGCAAUAUUACGGCCU | -2.67 ± 0.19 | -2.19 ± 0.25 |

| Sequence | self-splicing fitness (ln) (30 °C) | self-splicing fitness (ln) (37 °C) |
| --- | --- | --- |
| CAUGAGCAAUAUUACGUCUG | -1.41 ± 0.073 | -1.06 ± 0.073 |
| CAUGAGCAAUAUUACGUGGG | -4.29 ± 0.27 | -3.23 ± 0.32 |
| CAUGAGCAAUAUUACGUUAU | -3.12 ± 0.14 | -2.54 ± 0.24 |
| CAUUAGCAAUAUUACGAACU | -2.29 ± 0.31 | -2.63 ± 0.36 |
| CAUUAGCAAUAUUACGAAUU | -2.07 ± 0.22 | -1.2 ± 0.17 |
| CAUUAGCAAUAUUACGACGA | -2.25 ± 0.28 | -1.6 ± 0.2 |
| CAUUAGCAAUAUUACGAGCA | -3.42 ± 0.23 | -2.28 ± 0.14 |
| CAUUAGCAAUAUUACGAGCU | -2.57 ± 0.33 | -2.7 ± 0.44 |
| CAUUAGCAAUAUUACGAUAU | -2.91 ± 0.2 | -3.27 ± 0.3 |
| CAUUAGCAAUAUUACGCAUA | -2.03 ± 0.18 | -1.06 ± 0.15 |
| CAUUAGCAAUAUUACGCUGU | -2.72 ± 0.13 | -2.21 ± 0.18 |
| CAUUAGCAAUAUUACGCUUU | -3.35 ± 0.23 | -1.06 ± 0.16 |
| CAUUAGCAAUAUUACGGAGU | -3.87 ± 0.19 | -2.7 ± 0.2 |
| CAUUAGCAAUAUUACGGCCG | 0.721 ± 0.13 | 0.409 ± 0.14 |
| CAUUAGCAAUAUUACGGGCC | -2.71 ± 0.23 | -2.95 ± 0.43 |
| CAUUAGCAAUAUUACGGGGU | -3.26 ± 0.17 | -2.25 ± 0.17 |
| CAUUAGCAAUAUUACGGUCC | – | -1.72 ± 0.34 |
| CAUUAGCAAUAUUACGGUCG | -0.452 ± 0.14 | 0.576 ± 0.14 |
| CAUUAGCAAUAUUACGUAAA | -2.93 ± 0.15 | -1.34 ± 0.15 |
| CAUUAGCAAUAUUACGUACA | -2.7 ± 0.21 | -2.58 ± 0.2 |
| CAUUAGCAAUAUUACGUCGU | -4.03 ± 0.26 | -0.437 ± 0.17 |
